For one series, the system named is CL2. The settings on record: pH 7, 2 mM PLP.
Substrate in the series “purified protein”: NCCCC[C@H](N)C(=O)O
The series can be described thus: purified protein. The following applies: pH 7, 2 mM PLP.

The term Km denotes the substrate concentration at which the rate is half of its maximum.

For the molecule `NCCCC[C@H](N)C(=O)O` [L-lysine], the Km in the series with CL2 was determined as 22.2 ± 5.73 mM.

B1: CadA (Escherichia coli K-12) (protein)
chain: MNVIAILNHMGVYFKEEPIRELHRALERLNFQIVYPNDRDDLLKLIENNARLCGVIFDWDKYNLELCEEISKMNENLPLYAFANTYSTLDVSLNDLRLQISFFEYALGAAEDIANKIKQTTDEYINTILPPLTKALFKYVREGKYTFCTPGHMGGTAFQKSPVGSLFYDFFGPNTMKSDISISVSELGSLLDHSGPHKEAEQYIARVFNADRSYMVTNGTSTANKIVGMYSAPAGSTILIDRNCHKSLTHLMMMSDVTPIYFRPTRNAYGILGGIPQSEFQHATIAKRVKETPNATWPVHAVITNSTYDGLLYNTDFIKKTLDVKSIHFDSAWVPYTNFSPIYEGKCGMSGGRVEGKVIYETQSTHKLLAAFSQASMIHVKGDVNEETFNEAYMMHTTTSPHYGIVASTETAAAMMKGNAGKRLINGSIERAIKFRKEIKRLRTESDGWFFDVWQPDHIDTTECWPLRSDSTWHGFKNIDNEHMYLDPIKVTLLTPGMEKDGTMSDFGIPASIVAKYLDEHGIVVEKTGPYNLLFLFSIGIDKTKALSLLRALTDFKRAFDLNLRVKNMLPSLYREDPEFYENMRIQELAQNIHKLIVHHNLPDLMYRAFEVLPTMVMTPYAAFQKELHGMTEEVYLDEMVGRINANMILPYPPGVPLVMPGEMITEESRPVLEFLQMLCEIGAHYPGFETDIHGAYRQADGRYTVKVLKEESKK
For the molecule B1, in “purified protein”, the Km was determined as 29.23 ± 9.56 mM.

B2: LdcC (Escherichia coli K-12) (protein)
chain: MNIIAIMGPHGVFYKDEPIKELESALVAQGFQIIWPQNSVDLLKFIEHNPRICGVIFDWDEYSLDLCSDINQLNEYLPLYAFINTHSTMDVSVQDMRMALWFFEYALGQAEDIAIRMRQYTDEYLDNITPPFTKALFTYVKERKYTFCTPGHMGGTAYQKSPVGCLFYDFFGGNTLKADVSISVTELGSLLDHTGPHLEAEEYIARTFGAEQSYIVTNGTSTSNKIVGMYAAPSGSTLLIDRNCHKSLAHLLMMNDVVPVWLKPTRNALGILGGIPRREFTRDSIEEKVAATTQAQWPVHAVITNSTYDGLLYNTDWIKQTLDVPSIHFDSAWVPYTHFHPIYQGKSGMSGERVAGKVIFETQSTHKMLAALSQASLIHIKGEYDEEAFNEAFMMHTTTSPSYPIVASVETAAAMLRGNPGKRLINRSVERALHFRKEVQRLREESDGWFFDIWQPPQVDEAECWPVAPGEQWHGFNDADADHMFLDPVKVTILTPGMDEQGNMSEEGIPAALVAKFLDERGIVVEKTGPYNLLFLFSIGIDKTKAMGLLRGLTEFKRSYDLNLRIKNMLPDLYAEDPDFYRNMRIQDLAQGIHKLIRKHDLPGLMLRAFDTLPEMIMTPHQAWQRQIKGEVETIALEQLVGRVSANMILPYPPGVPLLMPGEMLTKESRTVLDFLLMLCSVGQHYPGFETDIHGAKQDEDGVYRVRVLKMAG
For B2, the Km in the series “purified protein” is 18.46 ± 0.89 mM.

These data come from article PMC12096693 (Microbial Cell Factories, 2025).
